Experiments:
[1] = target: mEGFP–Daple NT (N-terminal domain of mouse Daple) (mouse); test: single-molecule photobleaching steps and spot intensities
[2] = target: Microtubules polymerised from tubulin protein (T240; Cytoskeleton), paclitaxel-stabilised (UniProt P02550); test: co-sedimentation
[3] = target: mEGFP–Daple FL ΔCT (mouse Daple lacking the CT domain) (mouse); test: single-molecule photobleaching steps and spot intensities
[4] = target: mEGFP–Daple FL (full-length mouse Daple, mEGFP(A206K)-Daple-Flag) (mouse) (UniProt Q6VGS5); test: as above

Question: How did the stoichiometry N [1] turn out when “mEGFP–Daple NT (N-terminal domain of mouse Daple) (domain or fragment)” was run?
Answer: Its stoichiometry N is 2.

Question: “mEGFP–Daple FL (full-length mouse Daple, mEGFP(A206K)-Daple-Flag) (from UniProt Q6VGS5 1-2009) (natural protein)” was tested. Which Kd [2] did it give?
Answer: Its Kd is 1.46 µM.

Question: With “mEGFP–Daple FL ΔCT (mouse Daple lacking the CT domain) (domain or fragment)” as the substance, how does the stoichiometry N [3] read?
Answer: Its stoichiometry N is 2.

Question: For “mEGFP–Daple FL (full-length mouse Daple, mEGFP(A206K)-Daple-Flag), Q6VGS5 1-2009”, which stoichiometry N [4] is on record?
Answer: Its stoichiometry N is 2.
